Measurements reported in publication PMC3184176.

T1: FL-Pot1 (Schizosaccharomyces pombe, UniProt O13988 1-555)
T1 sequence: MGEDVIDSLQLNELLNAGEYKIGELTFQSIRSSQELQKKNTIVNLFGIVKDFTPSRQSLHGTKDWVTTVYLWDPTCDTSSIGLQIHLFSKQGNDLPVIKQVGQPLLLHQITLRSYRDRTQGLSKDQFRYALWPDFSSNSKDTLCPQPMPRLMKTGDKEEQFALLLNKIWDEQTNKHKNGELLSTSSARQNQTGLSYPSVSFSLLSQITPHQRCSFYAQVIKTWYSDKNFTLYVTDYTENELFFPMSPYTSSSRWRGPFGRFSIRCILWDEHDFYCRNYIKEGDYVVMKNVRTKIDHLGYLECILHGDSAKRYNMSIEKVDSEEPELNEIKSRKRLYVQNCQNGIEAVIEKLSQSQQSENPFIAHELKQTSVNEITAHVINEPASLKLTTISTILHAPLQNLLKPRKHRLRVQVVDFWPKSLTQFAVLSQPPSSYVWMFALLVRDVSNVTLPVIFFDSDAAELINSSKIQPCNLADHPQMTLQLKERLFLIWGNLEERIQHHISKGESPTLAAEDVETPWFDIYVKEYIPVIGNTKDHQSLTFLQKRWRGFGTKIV

T2: Pot1-DBD (Schizosaccharomyces pombe, UniProt O13988 1-389)
T2 sequence: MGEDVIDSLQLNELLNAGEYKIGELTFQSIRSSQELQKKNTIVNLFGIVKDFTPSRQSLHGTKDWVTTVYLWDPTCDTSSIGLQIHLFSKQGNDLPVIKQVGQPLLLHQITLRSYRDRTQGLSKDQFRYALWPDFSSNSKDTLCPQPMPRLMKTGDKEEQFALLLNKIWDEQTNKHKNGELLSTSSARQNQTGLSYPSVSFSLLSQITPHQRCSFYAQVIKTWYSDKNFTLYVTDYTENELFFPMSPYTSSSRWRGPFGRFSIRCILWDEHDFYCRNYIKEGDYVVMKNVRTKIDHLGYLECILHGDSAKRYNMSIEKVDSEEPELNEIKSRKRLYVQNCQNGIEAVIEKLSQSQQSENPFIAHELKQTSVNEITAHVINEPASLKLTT

T3: Pot1-DBD_L122A (Schizosaccharomyces pombe, UniProt O13988 1-389, L122A)
T3 sequence: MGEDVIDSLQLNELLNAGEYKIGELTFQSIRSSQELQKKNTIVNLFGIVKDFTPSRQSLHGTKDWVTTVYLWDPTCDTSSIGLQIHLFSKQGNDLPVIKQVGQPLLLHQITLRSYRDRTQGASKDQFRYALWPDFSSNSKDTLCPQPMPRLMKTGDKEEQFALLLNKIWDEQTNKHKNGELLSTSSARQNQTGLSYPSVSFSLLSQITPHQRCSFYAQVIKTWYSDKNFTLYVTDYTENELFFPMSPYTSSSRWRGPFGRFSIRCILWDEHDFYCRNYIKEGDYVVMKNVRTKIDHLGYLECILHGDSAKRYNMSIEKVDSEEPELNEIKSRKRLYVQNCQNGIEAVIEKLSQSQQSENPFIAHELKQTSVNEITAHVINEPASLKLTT

T4: Pot1-DBD_S123A (Schizosaccharomyces pombe, UniProt O13988 1-389, S123A)
T4 sequence: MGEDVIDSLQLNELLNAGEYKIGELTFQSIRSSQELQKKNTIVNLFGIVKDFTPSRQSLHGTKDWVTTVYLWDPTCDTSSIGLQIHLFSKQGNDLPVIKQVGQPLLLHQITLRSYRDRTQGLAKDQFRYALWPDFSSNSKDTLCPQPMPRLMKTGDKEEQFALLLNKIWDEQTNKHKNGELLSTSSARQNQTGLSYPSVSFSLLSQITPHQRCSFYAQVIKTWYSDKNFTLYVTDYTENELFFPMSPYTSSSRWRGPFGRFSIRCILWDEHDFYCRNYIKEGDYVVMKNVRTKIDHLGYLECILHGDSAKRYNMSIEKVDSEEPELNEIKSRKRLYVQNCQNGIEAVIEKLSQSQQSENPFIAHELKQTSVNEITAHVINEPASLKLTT

T5: Pot1-DBD_D64A (Schizosaccharomyces pombe, UniProt O13988 1-389, D64A)
T5 sequence: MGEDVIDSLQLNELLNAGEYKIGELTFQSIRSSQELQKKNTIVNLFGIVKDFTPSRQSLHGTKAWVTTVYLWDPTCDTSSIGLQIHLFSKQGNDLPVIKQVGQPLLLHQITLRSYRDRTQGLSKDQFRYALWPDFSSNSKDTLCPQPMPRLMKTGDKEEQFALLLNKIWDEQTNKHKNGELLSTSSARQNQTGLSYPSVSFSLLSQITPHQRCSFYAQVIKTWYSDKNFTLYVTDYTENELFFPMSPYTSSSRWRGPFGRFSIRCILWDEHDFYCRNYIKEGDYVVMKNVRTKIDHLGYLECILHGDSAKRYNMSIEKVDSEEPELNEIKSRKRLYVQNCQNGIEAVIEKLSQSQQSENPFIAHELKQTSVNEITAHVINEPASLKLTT

T6: Pot1-DBD_F88A (Schizosaccharomyces pombe, UniProt O13988 1-389, F88A)
T6 sequence: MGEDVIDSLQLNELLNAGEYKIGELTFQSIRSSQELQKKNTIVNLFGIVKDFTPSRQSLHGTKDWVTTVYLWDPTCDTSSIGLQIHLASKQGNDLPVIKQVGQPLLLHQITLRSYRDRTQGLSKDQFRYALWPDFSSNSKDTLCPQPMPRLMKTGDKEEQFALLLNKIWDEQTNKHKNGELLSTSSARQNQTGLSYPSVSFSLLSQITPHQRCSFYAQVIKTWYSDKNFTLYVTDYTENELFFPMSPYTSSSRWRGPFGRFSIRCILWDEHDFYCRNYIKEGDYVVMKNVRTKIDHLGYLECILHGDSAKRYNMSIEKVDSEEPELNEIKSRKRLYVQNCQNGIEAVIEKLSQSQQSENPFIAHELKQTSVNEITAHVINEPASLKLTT

T7: Pot1-DBD_Y115A (Schizosaccharomyces pombe, UniProt O13988 1-389, Y115A)
T7 sequence: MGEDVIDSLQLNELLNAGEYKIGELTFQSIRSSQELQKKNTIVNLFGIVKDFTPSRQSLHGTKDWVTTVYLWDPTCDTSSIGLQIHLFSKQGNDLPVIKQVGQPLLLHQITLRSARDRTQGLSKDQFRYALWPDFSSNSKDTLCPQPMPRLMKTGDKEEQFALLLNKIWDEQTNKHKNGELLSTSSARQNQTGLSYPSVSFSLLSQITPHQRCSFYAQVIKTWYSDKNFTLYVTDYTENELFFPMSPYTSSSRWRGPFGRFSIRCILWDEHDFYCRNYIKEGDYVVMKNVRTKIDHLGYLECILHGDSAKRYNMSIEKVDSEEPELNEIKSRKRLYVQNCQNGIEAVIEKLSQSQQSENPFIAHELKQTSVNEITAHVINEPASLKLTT

T8: Pot1-DBD_T62A (Schizosaccharomyces pombe, UniProt O13988 1-389, T62A)
T8 sequence: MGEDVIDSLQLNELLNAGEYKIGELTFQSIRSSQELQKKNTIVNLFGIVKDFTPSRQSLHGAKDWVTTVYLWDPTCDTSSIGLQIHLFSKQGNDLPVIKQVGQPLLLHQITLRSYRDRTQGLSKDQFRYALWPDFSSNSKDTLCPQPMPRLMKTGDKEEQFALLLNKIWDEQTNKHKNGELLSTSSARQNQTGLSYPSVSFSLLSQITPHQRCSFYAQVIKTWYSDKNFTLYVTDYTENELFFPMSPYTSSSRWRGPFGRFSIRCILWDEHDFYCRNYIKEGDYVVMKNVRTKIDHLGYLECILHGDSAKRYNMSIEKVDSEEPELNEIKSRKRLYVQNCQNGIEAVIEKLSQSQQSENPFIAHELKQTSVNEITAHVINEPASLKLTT


What was measured:
Test in all cases: EMSA
[1] = target: T1, FL-Pot1
[2] = target: T2, Pot1-DBD
[3] = target: T3, Pot1-DBD_L122A
[4] = target: T4, Pot1-DBD_S123A
[5] = target: T5, Pot1-DBD_D64A
[6] = target: T6, Pot1-DBD_F88A
[7] = target: T7, Pot1-DBD_Y115A
[8] = target: T8, Pot1-DBD_T62A

Binder | Kd [1] [pM] | other results
GGTTACCCAATGCCA (ssDNA) [6mer_9 comp] | 3.8 ± 0.1 | –
GGTTACGGTTACGGTTA (ssDNA) [17mer] | 2.3 ± 0.1 | –
GGTUACGGTTACGGT (ssDNA, U at 4 = deoxyuridine) [15_T4U] | 3 ± 0.4 | –
GGTTACGGTTACGG (ssDNA) [14mer] | 2.4 ± 0.4 | –
GGTTACTTTTTT (ssDNA) [6mer_T6] | 3.2 ± 0.3 | –
GGTTACCCAATG (ssDNA) [6mer_6 comp] | 9.5 ± 0.3 | –
GGTTACGGTTACG (ssDNA) [13mer] | 2.3 ± 0.3 | –
GGUTACGGTTACGGT (ssDNA, U at 3 = deoxyuridine) [15_T3U] | 2.6 ± 0.2 | –
GGTTACGGTTACGGT (ssDNA) [15mer] | 2.2 ± 0.1 | Kd [2]: 2.9 ± 0.3 pM; Kd [3]: 10 ± 1.4 pM; Kd [4]: 3.7 ± 0.3 pM; Kd [5]: 18 ± 2.4 pM; Kd [6]: 120 ± 30 pM; Kd [7]: 8 ± 0.7 pM; Kd [8]: 6.2 ± 0.6 pM
GGTTACTTTTTTTTT (ssDNA) [6mer_T9] | 2.6 ± 0.2 | –
GGTTACACGGTTACACGGT (ssDNA) [15mer_2xAC] | 3.2 ± 0.3 | –
GGTTACGGTTACGGTTAC (ssDNA) [18mer] | 3.8 ± 0.3 | –
TTTTTTTTTTTTTTT (ssDNA) [T15] | 8600 ± 1900 | –
GGTTACGGTTACGGTT (ssDNA) [16mer] | 2.2 ± 0.04 | –
CGTTTGCCAATGCCA (ssDNA) [15 comp GTT] | 10600 ± 300 | –
GGTTACGGTTAC (ssDNA) [12mer] | 2.8 ± 0.4 | Kd [2]: 4 ± 0.3 pM; Kd [3]: 770 ± 230 pM; Kd [4]: 8.2 ± 0.9 pM; Kd [5]: 3400 ± 670 pM; Kd [6]: 7700 ± 1800 pM; Kd [7]: 49 ± 5 pM; Kd [8]: 48 ± 8 pM
